Patent EP2345737A1 (Harant, Hanna, dated 2011)
Bridges are numbered along the chain shown (N, C = ends). Where no end group is shown, it is not given here.

T1: VEGF-A truncated nascent chain (amino-terminal 52 amino acid residues of human VEGF-A plus six histidine … (human))
T1 construct: Translated in vitro in wheat germ lysate without stop codon; also called short VEGF-A nascent chains; bait polypeptide
T1 chain: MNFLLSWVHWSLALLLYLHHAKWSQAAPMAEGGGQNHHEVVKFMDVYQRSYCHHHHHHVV

T2: VEGF-A truncated nascent chain (52 amino-terminal residues of VEGF-A plus His6 and two valines) translated in … (human, ε-labelled biotinylated lysine incorporated from Transcend tRNA (positions not stated))
T2 construct: in one setting the ribosomes were dissociated with RNAse ONE before elution; also called VEGF-A nascent chains; VEGF-A-translating ribosomes
T2 chain: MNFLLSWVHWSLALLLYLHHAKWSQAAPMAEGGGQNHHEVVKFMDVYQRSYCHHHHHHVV


Biological target: T1, VEGF-A truncated nascent chain …
Assay: phage panning, released His-tagged nascent chain on Ni-NTA beads, DTT elution; selection only

Binder	binding result
CFLFRLFC (disulfide 1-8; not fully specified, From the Ph.D.-C7C library; on phage; A hexapeptide; not shown: M13 pIII minor coat protein, peptide at its amino-terminus) [FLFRLF (SEQ ID NO:2), displayed on M13 phage]	binds
CSPRPSLSC (disulfide 1-9, From the Ph.D.-C7C library; on phage; not shown: M13 pIII minor coat protein, peptide at its amino-terminus) [SPRPSLS (SEQ ID NO:15), displayed on M13 phage]	binds
CSGSSPWHC (disulfide 1-9, From the Ph.D.-C7C library; on phage; not shown: M13 pIII minor coat protein, peptide at its amino-terminus) [SGSSPWH (SEQ ID NO:7), displayed on M13 phage]	binds
CPMTSPPSC (disulfide 1-9, From the Ph.D.-C7C library; on phage; not shown: M13 pIII minor coat protein, peptide at its amino-terminus) [PMTSPPS (SEQ ID NO:3), displayed on M13 phage]	binds
CPVAPSTHC (disulfide 1-9, From the Ph.D.-C7C library; on phage; not shown: M13 pIII minor coat protein, peptide at its amino-terminus) [PVAPSTH (SEQ ID NO:13), displayed on M13 phage]	binds
CNPISLHLC (disulfide 1-9, From the Ph.D.-C7C library; on phage; not shown: M13 pIII minor coat protein, peptide at its amino-terminus) [NPISLHL (SEQ ID NO:4), displayed on M13 phage]	binds
CHPSSTHQC (disulfide 1-9; not fully specified, From the Ph.D.-C7C library; on phage; not shown: M13 pIII minor coat protein, peptide at its amino-terminus) [HPSSTHQ (SEQ ID NO:8), displayed on M13 phage]	binds
CSVSGSPSC (disulfide 1-9; also: displayed on M13 phage, fused to pIII, From the Ph.D.-C7C library; on phage; not shown: M13 pIII minor coat protein, peptide at its amino-terminus) [SVSGSPS (SEQ ID NO:6), displayed on M13 phage]	binds
CLTRPSPSC (disulfide 1-9; not fully specified, From the Ph.D.-C7C library; on phage; not shown: M13 pIII minor coat protein, peptide at its amino-terminus) [LTRPSPS (SEQ ID NO:10), displayed on M13 phage]	binds
CTASSVKLC (disulfide 1-9; also: displayed on M13 phage, fused to pIII, From the Ph.D.-C7C library; on phage; not shown: M13 pIII minor coat protein, peptide at its amino-terminus) [TASSVKL (SEQ ID NO:5), displayed on M13 phage]	binds
CSSPLLGRC (disulfide 1-9, From the Ph.D.-C7C library; on phage; not shown: M13 pIII minor coat protein, peptide at its amino-terminus) [SSPLLGR (SEQ ID NO:12), displayed on M13 phage]	binds
CLGALSHTC (disulfide 1-9; not fully specified, From the Ph.D.-C7C library; on phage; not shown: M13 pIII minor coat protein, peptide at its amino-terminus) [LGALSHT (SEQ ID NO:14), displayed on M13 phage]	binds
CNLSSSWIC (disulfide 1-9, From the Ph.D.-C7C library; on phage; not shown: M13 pIII minor coat protein, peptide at its amino-terminus) [NLSSSWI (SEQ ID NO:9), displayed on M13 phage]	binds
CSPSLLPAC (disulfide 1-9, From the Ph.D.-C7C library; on phage; not shown: M13 pIII minor coat protein, peptide at its amino-terminus) [SPSLLPA (SEQ ID NO:11), displayed on M13 phage]	binds

Biological target: T2, VEGF-A truncated nascent chain (52 …)
Assay: phage panning, biotinylated ribosome-bound nascent chain in streptavidin wells; selection only

Binder	binding result
CLTLPNRTC (disulfide 1-9; not fully specified, From the Ph.D.-C7C library; on phage; not shown: M13 pIII minor coat protein, peptide at its amino-terminus) [LTLPNRT (SEQ ID NO: 17), displayed on M13 phage]	binds
CTLSHTRTC (disulfide 1-9; also: displayed on M13 phage, fused to pIII, From the Ph.D.-C7C library; on phage; not shown: M13 pIII minor coat protein, peptide at its amino-terminus) [TLSHTRT (SEQ ID NO: 35), displayed on M13 phage]	binds
CHPMFWPIC (disulfide 1-9; not fully specified, From the Ph.D.-C7C library; on phage; not shown: M13 pIII minor coat protein, peptide at its amino-terminus) [HPMFWPI (SEQ ID NO: 29), displayed on M13 phage]	binds
CHPMFPLSC (disulfide 1-9; not fully specified, From the Ph.D.-C7C library; on phage; not shown: M13 pIII minor coat protein, peptide at its amino-terminus) [HPMFPLS (SEQ ID NO: 28), displayed on M13 phage]	binds
CHALSSRTC (disulfide 1-9; not fully specified, From the Ph.D.-C7C library; on phage; not shown: M13 pIII minor coat protein, peptide at its amino-terminus) [HALSSRT (SEQ ID NO: 32), displayed on M13 phage]	binds
CHALPAPDC (disulfide 1-9; not fully specified, From the Ph.D.-C7C library; on phage; not shown: M13 pIII minor coat protein, peptide at its amino-terminus) [HALPAPD (SEQ ID NO: 49), displayed on M13 phage]	binds
CNASRTTLC (disulfide 1-9; not fully specified, From the Ph.D.-C7C library; on phage; not shown: M13 pIII minor coat protein, peptide at its amino-terminus) [NASRTTL (SEQ ID NO: 48), displayed on M13 phage]	binds
CLPRPLHSC (disulfide 1-9; not fully specified, From the Ph.D.-C7C library; on phage; not shown: M13 pIII minor coat protein, peptide at its amino-terminus) [LPRPLHS (SEQ ID NO: 42), displayed on M13 phage]	binds
CSPSTSSRC (disulfide 1-9, From the Ph.D.-C7C library; on phage; not shown: M13 pIII minor coat protein, peptide at its amino-terminus) [SPSTSSR (SEQ ID NO: 34), displayed on M13 phage]	binds
CEPASSRHC (disulfide 1-9; not fully specified, From the Ph.D.-C7C library; on phage; not shown: M13 pIII minor coat protein, peptide at its amino-terminus) [EPASSRH (SEQ ID NO: 37), displayed on M13 phage]	binds
CLPVSSSSC (disulfide 1-9; not fully specified, From the Ph.D.-C7C library; on phage; not shown: M13 pIII minor coat protein, peptide at its amino-terminus) [LPVSSSS (SEQ ID NO: 24), displayed on M13 phage]	binds
CEASSSRAC (disulfide 1-9; not fully specified, From the Ph.D.-C7C library; on phage; not shown: M13 pIII minor coat protein, peptide at its amino-terminus) [EASSSRA (SEQ ID NO: 45), displayed on M13 phage]	binds
CSRSALESC (disulfide 1-9, From the Ph.D.-C7C library; on phage; not shown: M13 pIII minor coat protein, peptide at its amino-terminus) [SRSALES (SEQ ID NO: 46), displayed on M13 phage]	binds
CHAWTFNSC (disulfide 1-9; not fully specified, From the Ph.D.-C7C library; on phage; not shown: M13 pIII minor coat protein, peptide at its amino-terminus) [HAWTFNS (SEQ ID NO: 22), displayed on M13 phage]	binds
CSLNSDLFC (disulfide 1-9, From the Ph.D.-C7C library; on phage; not shown: M13 pIII minor coat protein, peptide at its amino-terminus) [SLNSDLF (SEQ ID NO: 26), displayed on M13 phage]	binds
CLPPLQRLC (disulfide 1-9; not fully specified, From the Ph.D.-C7C library; on phage; not shown: M13 pIII minor coat protein, peptide at its amino-terminus) [LPPLQRL (SEQ ID NO: 19), displayed on M13 phage]	binds

Binder	binding result
CFPATAASC (disulfide 1-9; not fully specified, From the Ph.D.-C7C library; on phage; not shown: M13 pIII minor coat protein, peptide at its amino-terminus) [FPATAAS (SEQ ID NO: 36), displayed on M13 phage]	binds
CSSTLHPSC (disulfide 1-9; also: displayed on M13 phage, fused to pIII, From the Ph.D.-C7C library; on phage; not shown: M13 pIII minor coat protein, peptide at its amino-terminus) [SSTLHPS (SEQ ID NO: 31), displayed on M13 phage]	binds
CDYPWPLPC (disulfide 1-9; not fully specified, From the Ph.D.-C7C library; on phage; not shown: M13 pIII minor coat protein, peptide at its amino-terminus) [DYPWPLP (SEQ ID NO: 40), displayed on M13 phage]	binds
CLALSAARC (disulfide 1-9; not fully specified, From the Ph.D.-C7C library; on phage; not shown: M13 pIII minor coat protein, peptide at its amino-terminus) [LALSAAR (SEQ ID NO: 25), displayed on M13 phage]	binds
CSYPLRPPC (disulfide 1-9; also: displayed on M13 phage, fused to pIII, From the Ph.D.-C7C library; on phage; not shown: M13 pIII minor coat protein, peptide at its amino-terminus) [SYPLRPP (SEQ ID NO: 23), displayed on M13 phage]	binds
CPPPFLPLC (disulfide 1-9, From the Ph.D.-C7C library; on phage; not shown: M13 pIII minor coat protein, peptide at its amino-terminus) [PPPFLPL (SEQ ID NO: 20), displayed on M13 phage]	binds
CPSLFPSMC (disulfide 1-9, From the Ph.D.-C7C library; on phage; not shown: M13 pIII minor coat protein, peptide at its amino-terminus) [PSLFPSM (SEQ ID NO: 44), displayed on M13 phage]	binds
CPHTRGFMC (disulfide 1-9, From the Ph.D.-C7C library; on phage; not shown: M13 pIII minor coat protein, peptide at its amino-terminus) [PHTRGFM (SEQ ID NO: 33), displayed on M13 phage]	binds
CPANFGPSC (disulfide 1-9, From the Ph.D.-C7C library; on phage; not shown: M13 pIII minor coat protein, peptide at its amino-terminus) [PANFGPS (SEQ ID NO: 16), displayed on M13 phage]	binds
CEIRTPSVC (disulfide 1-9; not fully specified, From the Ph.D.-C7C library; on phage; not shown: M13 pIII minor coat protein, peptide at its amino-terminus) [EIRTPSV (SEQ ID NO: 21), displayed on M13 phage]	binds
CAFPGMKAC (disulfide 1-9; not fully specified, From the Ph.D.-C7C library; on phage; not shown: M13 pIII minor coat protein, peptide at its amino-terminus) [AFPGMKA (SEQ ID NO: 18), displayed on M13 phage]	binds
CPLHPPQPC (disulfide 1-9, From the Ph.D.-C7C library; on phage; not shown: M13 pIII minor coat protein, peptide at its amino-terminus) [PLHPPQP (SEQ ID NO: 41), displayed on M13 phage]	binds
CSPHLIPSC (disulfide 1-9, From the Ph.D.-C7C library; on phage; not shown: M13 pIII minor coat protein, peptide at its amino-terminus) [SPHLIPS (SEQ ID NO: 27), displayed on M13 phage]	binds
CPSALAFYC (disulfide 1-9, From the Ph.D.-C7C library; on phage; not shown: M13 pIII minor coat protein, peptide at its amino-terminus) [PSALAFY (SEQ ID NO: 47), displayed on M13 phage]	binds
CWASQAHPC (disulfide 1-9; also: displayed on M13 phage, fused to pIII, From the Ph.D.-C7C library; on phage; not shown: M13 pIII minor coat protein, peptide at its amino-terminus) [WASQAHP (SEQ ID NO: 30), displayed on M13 phage]	binds
CVSGSSPQC (disulfide 1-9; also: displayed on M13 phage, fused to pIII, From the Ph.D.-C7C library; on phage; not shown: M13 pIII minor coat protein, peptide at its amino-terminus) [VSGSSPQ (SEQ ID NO: 43), displayed on M13 phage]	binds

Biological target: T1, VEGF-A truncated nascent chain …
Assay: phage panning by co-sedimentation with ribosome-bound nascent chain, with subtraction on non-translating ribosomes; selection only

Binder	binding result
CPLHARLPC (disulfide 1-9, From the Ph.D.-C7C library; on phage; not shown: M13 pIII minor coat protein, peptide at its amino-terminus) [PLHARLP (SEQ ID NO:1), displayed on M13 phage]	binds
